Source: patent US20150246947A1 (BAXALTA, published 2015)
“And” between values parts separate entries of the source, which are not always exact repeats. Equal values may be shown once. Read-outs that look alike come from different tables or passages of the source. Non-standard residues stand in square brackets, D forms with d. Tle = CC(C)(C)[C@H](N)C(=O)O

T1: human Protein S (UniProt P07225 42-676)
T1 chain: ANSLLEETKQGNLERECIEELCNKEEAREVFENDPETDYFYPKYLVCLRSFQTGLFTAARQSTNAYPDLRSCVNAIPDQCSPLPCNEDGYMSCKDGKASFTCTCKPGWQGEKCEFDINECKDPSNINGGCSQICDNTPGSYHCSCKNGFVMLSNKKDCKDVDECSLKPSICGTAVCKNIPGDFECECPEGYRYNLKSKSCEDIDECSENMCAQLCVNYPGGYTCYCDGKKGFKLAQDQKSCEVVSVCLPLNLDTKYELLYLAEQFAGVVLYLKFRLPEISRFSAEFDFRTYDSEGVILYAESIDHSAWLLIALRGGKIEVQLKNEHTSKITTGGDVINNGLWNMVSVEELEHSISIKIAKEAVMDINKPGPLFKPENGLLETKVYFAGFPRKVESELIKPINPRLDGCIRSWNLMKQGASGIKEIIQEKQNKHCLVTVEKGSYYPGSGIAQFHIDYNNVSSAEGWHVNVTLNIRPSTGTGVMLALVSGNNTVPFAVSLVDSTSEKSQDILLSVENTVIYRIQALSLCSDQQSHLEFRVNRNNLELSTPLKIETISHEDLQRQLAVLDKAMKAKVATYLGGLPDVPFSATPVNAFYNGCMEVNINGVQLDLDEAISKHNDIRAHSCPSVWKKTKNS

T2: human Protein S (human, UniProt P07225 42-676)
T2 construct: Called 'full length Protein S' / 'human full-length Protein S'; It was coated on plates (ELISA), Eu-labeled (LANCE) or immobilized on a chip (Biacore); also called PS; full length Protein S
T2 sequence: T1 chain

B1: JBS3202 (peptide)
peptide: Ac-TGL[Tle]SAGWYDYNFDTYREFT-NH2
SMILES: CC(=O)N[C@H](C(=O)NCC(=O)N[C@@H](CC(C)C)C(=O)N[C@H](C(=O)N[C@@H](CO)C(=O)N[C@@H](C)C(=O)NCC(=O)N[C@@H](Cc1c[nH]c2ccccc12)C(=O)N[C@@H](Cc1ccc(O)cc1)C(=O)N[C@@H](CC(=O)O)C(=O)N[C@@H](Cc1ccc(O)cc1)C(=O)N[C@@H](CC(N)=O)C(=O)N[C@@H](Cc1ccccc1)C(=O)N[C@@H](CC(=O)O)C(=O)N[C@H](C(=O)N[C@@H](Cc1ccc(O)cc1)C(=O)N[C@@H](CCCNC(=N)N)C(=O)N[C@@H](CCC(=O)O)C(=O)N[C@@H](Cc1ccccc1)C(=O)N[C@H](C(N)=O)[C@@H](C)O)[C@@H](C)O)C(C)(C)C)[C@@H](C)O

How the values were obtained:
[1] = target: T1, human Protein S; assay: LANCE competition
Outline: (§1)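 A homogeneous time-resolved FRET (LANCE) competition format paired europium-labelled Protein S and ULight-labelled streptavidin with a biotinylated tracer peptide, against which unlabelled test peptide was titrated three-fold. With final concentrations of 10 nM Protein S, 100 nM streptavidin and 300 nM tracer in 50 µl, or 2 nM Protein S and 60 nM tracer when a Tecan F500 was used, samples stood 1 hour at room temperature. Emission was read at 665 nm with excitation at 340 nm. Non-linear regression of these signals gave the IC50.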

[2] = target: T2, human Protein S; assay: Biacore and LANCE IC50
[3] = target: T2, human Protein S; assay: LANCE TR-FRET competition; Eu-labeled Protein S; competitor tracer JBS0684
Experimental: Peptides also were characterized in a competition, homogenous europium-based TR-FRET assay (LANCE IC50 assay) using JBS0684 as a tracer (i.e., competitor for Protein S binding). The following reagents were mixed together in a Perkin-Elmer ProxiPlate MTP well (indicated concentration is the final concentration): Eu-labeled Protein S (10 nM), Ulight™-labeled Streptavidin (100 nM), tracer (JBS0684 (300 nM)), and peptide (titrated in three-fold dilution steps). The final volume was 50 μl/well. The reaction mix was incubated for 1 hour at room temperature, then the fluorescence emission at 665 nm was recorded on a multi-mode reader (SpectraMax® M5, Molecular Devices) using the following instrument settings: Ex 340 nm, Em 665 nm, delay 50 μsec, integration 100 μsec, reads 100. Binding of tracer peptides to soluble europium-labeled Protein S was detected by Streptavidin labeled with an acceptor fluorophor (ULight™). Inhibition of tracer-binding to Protein S by a non-biotinylated peptide results in a decrease of TR-FRET between the Eu-labeled Protein S and ULight™-labeled Streptavidin. IC50 values were obtained from peptide titration curves at constant tracer concentration using non-linear regression of the fluorescence emission signals at 665 nm.
Several peptides having multiple substitutions in the JBS2572 amino acid sequence were synthesized and evaluated using LANCE IC50 and CAT assays described above. For the assays, pooled normal plasma was supplemented with 3 nM APC and triggered with 6 pM TF, and 15 μM phospholipids (DOPC/POPS 80/20). Stock APC was diluted with TF-PL-MIX to 24 nM (plasma concentration: 3 nM).

[4] = target: T2, human Protein S; assay: cell-based or functional assay
[5] = target: T1, human Protein S; assay: LANCE competition
Outline: as §1

[6] = target: T1, human Protein S; assay: LANCE competition
Outline: as §1

Binder	IC50 [1]	binding result [2]	IC50 [3]	CAT EC50 [4]	IC50 [5]	IC50 [6]
Ac-EYYVEAGWYEYNTDNYYPFE-NH2 [JBS3236]	2.6 nM	binds				
B1			1.6 nM	129 nM		
Ac-TGL[Tle]SAGWYDYNFDHYMEFT-NH2 [JBS3203]			1.8 nM	127 nM		
Ac-YVEVSAGWYDYNTDTYSEFW-NH2 [JBS3281]		binds			1.7 nM and 2.3 nM	
Ac-TGLVEAGWYDYNFDVYREFT-NH2 [JBS3193]	2.7 nM		2.5 nM	116 nM		
Ac-TGLVSAGWYDYNNDVYREFT-NH2 [JBS3195]	2.1 nM		2 nM	139 nM		
Ac-EYYVSAGWYDYNNDIYYEFE-NH2 [JBS3218]	0.9 nM	binds				
Ac-EYYVSAGWYDYMTDTYTEFE-NH2 [JBS3235]	1.4 nM	binds				
Ac-TGLVSAGWYDYNFDTYMEFT-NH2 [JBS3186]			2.6 nM	176 nM		
Ac-TGLVEAGWYDYNFDTYREFT-NH2 [JBS3192]			2.8 nM	117 nM		
Ac-TGLVSAGWYDYNFDVYTEFT-NH2 [JBS3189]			5 nM	281 nM		
Ac-YGLVSAGWYDYNFDVYREFT-NH2 [JBS3191]			1.6 nM	147 nM		
Ac-TGLVSAGWYDYNNDHYMEFT-NH2 [JBS3198]			2.5 nM	149 nM		
Ac-YGLVSAGWYDYNFDTYREFT-NH2 [JBS3190]			1.6 nM	130 nM		
Ac-TGLVEAGWYDYNFDHYMEFT-NH2 [JBS3197]			6.1 nM	146 nM		
Ac-TGLVSAGWYDYNFDTYTEFT-NH2 [JBS3188]			2.9 nM	155 nM		
Ac-YGIVSAGWYDMNNDYYFEFY-NH2 [JBS3258]		binds			0.8 nM and 0.9 nM	
Ac-DVHVSAGWYDYNKDIYYEFT-NH2 [JBS3296]	2.2 nM	binds				
Ac-EYYVSAGWYDYNTDTYYEFT-NH2 [JBS3314]		binds			0.8 nM	
Ac-YGLVEAGWYDYNNDTYMEFT-NH2 [JBS3201]	1.8 nM		1.9 nM	127 nM		
Ac-TGLVSAGWYDYNNDTYREFT-NH2 [JBS3194]	2 nM		1.8 nM	122 nM		
Ac-EYYVTAGWYDYNTDTYYEFE-NH2 [JBS3232]	0.9 nM	binds				
Ac-EGYVSAGWYDYNQDIYFEFA-NH2 [JBS3260]		binds			1.6 nM	
Ac-EVIVSAGWYDYNNDIYYEFW-NH2 [JBS3274]	1 nM	binds				
Ac-ESYVSAGWYDYNTDTYYEFF-NH2 [JBS3223]	0.7 nM	binds				
Ac-YGLVSAGWYDYNFDHYMEFT-NH2 [JBS3196]	2.5 nM		2.2 nM	155 nM		
Ac-YGIVSAGWYDYNTDTYYEFY-NH2 [JBS3221]		binds				0.6 nM
Ac-HIYVTAGWYDYNTDTYHEFE-NH2 [JBS3284]		binds			1.3 nM	
Ac-DNYVSAGWYDYNTDTYYEFY-NH2 [JBS3297]		binds			1 nM	
